# Assay results taken from the RNAGym collection of RNA variant scans (doi:10.7554/elife.80360).
# B1: CPEB3 Ribozyme (parent)
# chain: GGGGGCCACAGCAGAAGCGUUCACGUCGCGGCCCCUGUCAGAUUCUGGUGAAUCUGCGAAUUCUGCUGU
# Variants of: B1
# Test: self-cleavage, relative activity (ratio to wild type); higher = more cleavage; co-transcriptional
row,Variant,self-cleavage
1,A52C C57G,0.26
2,A51G,0.994
3,A51U,0.994
4,A51C,0.989
5,A51U C66A,0.706
6,A51U C66G,0.752
7,A51U C66U,0.981
8,A51U C54U,0.932
9,A51U C54G,0.677
10,A52C C66A,0.68
11,A52C C66G,0.782
12,A52C C66U,0.912
13,A51G U64C,0.949
14,A51G U64A,0.991
15,A51G U64G,0.917
16,A52C A59C,0.527
17,A52C A59G,0.985
18,A51C G65A,0.807
19,A51C G65C,0.64
20,A51C C57A,0.294
21,A51C C57U,0.338
22,A51U U53C,0.863
23,A51U U53G,0.825
24,A51C C54G,0.585

row,Variant,self-cleavage
1,A51C C54U,0.928
2,A52C G65U,0.765
3,A52C G65C,0.582
4,A52C G65A,0.88
5,A51U C57G,0.238
6,A51U C57U,0.388
7,A51G U55C,0.839
8,A51G U55G,0.63
9,A51G U62A,0.98
10,A51G U62G,0.89
11,A51G U62C,0.884
12,A51U G68C,1
13,A51U G68U,1.01
14,A51U G68A,0.999
15,A51G G65U,0.872
16,A51G G65C,0.715
17,A51G G65A,0.948
18,A51U A59C,0.645
19,A51U A59U,0.762
20,A51G A60U,0.589
21,A51G A60G,0.939
22,G50U G56U,0.91
23,G50U G56A,0.928
24,A51C U55A,0.643

row,Variant,self-cleavage
1,A51U U69A,1.01
2,A51U U69G,1.06
3,A51U U69C,1.07
4,G50U C63A,0.874
5,G50U C63U,0.974
6,A51G G58C,1.01
7,A51G G58U,1.01
8,A51C U53A,0.851
9,A51C U53C,0.781
10,A51G U67G,1.01
11,A51G U67C,0.99
12,A51G U67A,0.967
13,A51U U67A,0.976
14,A51U U67C,1.01
15,A51U U67G,1
16,A51G C63G,0.772
17,A51G C63U,0.96
18,A51G C63A,0.884
19,G50U U69A,0.99
20,G50U U69G,1.05
21,G50U U69C,1.09
22,A52C C54U,0.856
23,A52C C54A,0.615
24,A52C C54G,0.562

row,Variant,self-cleavage
1,A51G C54A,0.854
2,A51G C54G,0.858
3,A51G C54U,0.986
4,A51C C63A,0.748
5,A51C C63U,0.942
6,A52C G58U,0.977
7,A51G U61A,0.833
8,A51G U61G,0.85
9,A51U C63G,0.815
10,A51U C63U,0.996
11,A51U A60U,0.438
12,A51U A60C,0.378
13,A51U A60G,0.891
14,G50U U67C,1.01
15,A51U U62G,0.868
16,A51U U62C,0.892
17,A51U U62A,0.931
18,A51C U69G,1.01
19,A51C U69C,1.08
20,A51C U69A,1.05
21,A51C A52C,0.949
22,A51C A52G,0.914
23,G50U G68C,1.03
24,G50U G68A,1.01

row,Variant,self-cleavage
1,A51U U61A,0.932
2,A51U U61G,0.772
3,A51C U64C,0.787
4,A51C U64A,0.866
5,G50U U62G,0.977
6,G50U U62A,0.989
7,A51C G68A,0.961
8,A51C G68C,0.996
9,A51C G68U,1.01
10,A51C C66A,0.628
11,A51C C66U,0.937
12,A51C C66G,0.777
13,A51U U55C,0.561
14,A51U U55A,0.696
15,G50U U55C,0.766
16,G50U G58U,1.03
17,G50U G58A,0.948
18,A51C A60G,0.85
19,A51C A60U,0.468
20,A51G A52C,0.94
21,A51G A52U,0.902
22,A51C U61A,0.813
23,A52C U53A,0.936
24,A52C G56U,0.741

row,Variant,self-cleavage
1,A52C G56C,0.536
2,A51C A59G,0.96
3,A51C A59U,0.742
4,A51C A59C,0.658
5,A51G C57A,0.399
6,A51G C57U,0.321
7,A52C G68U,0.979
8,A51G A59U,0.859
9,A51U G58U,0.954
10,A51U U64C,0.788
11,A51U U64G,0.826
12,A51U U64A,0.799
13,A52C A60U,0.476
14,G50U C57G,0.264
15,G50U C57A,0.355
16,G50U C57U,0.366
17,A51G U69G,1.03
18,A51G U69A,0.995
19,A51G G56U,0.95
20,A52C C63U,0.973
21,A52C C63G,0.688
22,G50U U61A,0.97
23,G50U U61G,0.857
24,G50U U61C,0.841

row,Variant,self-cleavage
1,G50U U53A,0.999
2,A51U G65A,0.889
3,A51U G65U,0.765
4,A52C,0.993
5,A51C G58U,1.03
6,A51C G58A,0.92
7,A51C G58C,0.957
8,G50U U64A,0.954
9,G50U G65A,0.953
10,A51U A52C,0.969
11,A51U A52G,0.982
12,A51G U53A,0.981
13,A51G U53G,0.839
14,A51G U53C,0.899
15,A51C G56A,0.856
16,A51C G56U,0.8
17,A51C U62C,0.76
18,A51C U62A,0.901
19,A51C U67G,0.993
20,A51C U67A,0.961
21,A51G G68C,0.911
22,A51G G68A,1.01
23,A51G G68U,1.03
